The results in this text go back to PMC2816671 (2010).

To fix the notation:
B1: plasmin (protein)
chain: VVGGCVAHPHSWPWQVSLRTRFGMHFCGGTLISPEWVLTAAHCLEKSPRPSSYKVILGAHQEVNLEPHVQEIEVSRLFLEPTRKDIALLKLSSPAVITDKVIPACLPSPNYVVADRTECFITGWGETQGTFGAGLLKEAQLPVIENKVCNRYEFLNGRVQSTELCAGHLAGGTDSCQGDSGGPLVCFEKDKYILQGVTSWGLGCARPNKPGVYVRVSRFVTWIEGVMRNN
B2: active-site blocked plasmin (protein)
chain 1: KVYLSECKTGNGKNYRGTMSKTKNGITCQKWSSTSPHRPRFSPATHPSEGLEENYCRNPDNDPQGPWCYTTDPEKRYDYCDILECEEECMHCSGENYDGKISKTMSGLECQAWDSQSPHAHGYIPSKFPNKNLKKNYCRNPDRELRPWCFTTDPNKRWELCDIPRCTTPPPSSGPTYQCLKGTGENYRGNVAVTVSGHTCQHWSAQTPHTHNRTPENFPCKNLDENYCRNPDGKRAPWCHTTNSQVRWEYCKIPSCDSSPVSTEQLAPTAPPELTPVVQDCYHGDGQSYRGTSSTTTTGKKCQSWSSMTPHRHQKTPENYPNAGLTMNYCRNPDADKGPWCFTTDPSVRWEYCNLKKCSGTEASVVAPPPVVLLPDVETPSEEDCMFGNGKGYRGKRATTVTGTPCQDWAAQEPHRHSIFTPETNPRAGLEKNYCRNPDGDVGGPWCYTTNPRKLYDYCDVPQCAAPSFDCGKPQVEPKKCPGR
chain 2: B1 chain
modifications: Pefabloc (AEBSF) active-site blocked
B3: plasminogen (protein)
chain: EPLDDYVNTQGASLFSVTKKQLGAGSIEECAAKCEEDEEFTCRAFQYHSKEQQCVIMAENRKSSIIIRMRDVVLFEKKVYLSECKTGNGKNYRGTMSKTKNGITCQKWSSTSPHRPRFSPATHPSEGLEENYCRNPDNDPQGPWCYTTDPEKRYDYCDILECEEECMHCSGENYDGKISKTMSGLECQAWDSQSPHAHGYIPSKFPNKNLKKNYCRNPDRELRPWCFTTDPNKRWELCDIPRCTTPPPSSGPTYQCLKGTGENYRGNVAVTVSGHTCQHWSAQTPHTHNRTPENFPCKNLDENYCRNPDGKRAPWCHTTNSQVRWEYCKIPSCDSSPVSTEQLAPTAPPELTPVVQDCYHGDGQSYRGTSSTTTTGKKCQSWSSMTPHRHQKTPENYPNAGLTMNYCRNPDADKGPWCFTTDPSVRWEYCNLKKCSGTEASVVAPPPVVLLPDVETPSEEDCMFGNGKGYRGKRATTVTGTPCQDWAAQEPHRHSIFTPETNPRAGLEKNYCRNPDGDVGGPWCYTTNPRKLYDYCDVPQCAAPSFDCGKPQVEPKKCPGRVVGGCVAHPHSWPWQVSLRTRFGMHFCGGTLISPEWVLTAAHCLEKSPRPSSYKVILGAHQEVNLEPHVQEIEVSRLFLEPTRKDIALLKLSSPAVITDKVIPACLPSPNYVVADRTECFITGWGETQGTFGAGLLKEAQLPVIENKVCNRYEFLNGRVQSTELCAGHLAGGTDSCQGDSGGPLVCFEKDKYILQGVTSWGLGCARPNKPGVYVRVSRFVTWIEGVMRNN

The target in this assay is von Willebrand factor (Homo sapiens, UniProt P04275). As to the kind of experiment: Eu-labelled ligand solid-phase equilibrium binding.
Turning to B1, the equilibrium dissociation constant (Kd) (as a rule, a measure of binding affinity in units of concentration) was 160 nM.

The molecule B2 had a Kd of 270 nM.

The molecule B3 yielded a Kd of 100 nM.
